# Reference: paper PMC11723951
# Biological target: CBX5^MBD chimera (CBX5 in which the chromodomain was replaced by the MeCP2 methyl-DNA binding domain) (UniProt P51608)
substance,measurement,value
"KMT5C heterochromatin retention domain (HRD), wild type, fluorescent fusion (domain or fragment)","chromocenter partition coefficient of the HRD in Suv39h1/2 null MEFs upon CBX5^MBD co-expression (1.33 without it; 11.54 in wild-type cells), live-cell imaging",4.43
